Positions of bridges follow the written chain, without caps; N, C: chain ends. Non-standard residues stand in square brackets, D forms with d. *: point of attachment. Pyrrolidide = C1CCN(*)C1; dNMeA = CN[C@H](C)C(=O)O
T1: full-length human Regnase-1 with a FLAG tag on the N-terminal side and a biotin ligase BirA recognition … (human, UniProt Q5D1E8 1-599, biotinylated at the BirA recognition sequence when required)
T1 sequence: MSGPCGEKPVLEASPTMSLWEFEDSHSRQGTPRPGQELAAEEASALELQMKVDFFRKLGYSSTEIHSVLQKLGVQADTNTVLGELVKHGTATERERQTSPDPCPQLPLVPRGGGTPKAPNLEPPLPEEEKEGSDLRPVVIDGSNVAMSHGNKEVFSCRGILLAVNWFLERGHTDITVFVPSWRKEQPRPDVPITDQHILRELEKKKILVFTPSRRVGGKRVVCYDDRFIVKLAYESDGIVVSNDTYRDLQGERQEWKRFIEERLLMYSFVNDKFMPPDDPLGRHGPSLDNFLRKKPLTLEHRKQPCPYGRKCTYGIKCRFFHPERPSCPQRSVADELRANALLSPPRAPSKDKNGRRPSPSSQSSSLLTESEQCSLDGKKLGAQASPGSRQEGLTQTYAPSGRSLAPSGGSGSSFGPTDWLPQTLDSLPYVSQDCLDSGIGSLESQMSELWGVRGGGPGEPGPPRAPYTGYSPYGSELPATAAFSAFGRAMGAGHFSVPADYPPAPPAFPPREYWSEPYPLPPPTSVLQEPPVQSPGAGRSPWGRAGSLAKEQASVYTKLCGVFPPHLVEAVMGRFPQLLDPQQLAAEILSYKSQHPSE

T2: C-terminal domain-deleted human Regnase-1 (amino acids 1 to 546) with N-terminal FLAG tag and C-terminal BirA … (human, UniProt Q5D1E8 1-546)
T2 sequence: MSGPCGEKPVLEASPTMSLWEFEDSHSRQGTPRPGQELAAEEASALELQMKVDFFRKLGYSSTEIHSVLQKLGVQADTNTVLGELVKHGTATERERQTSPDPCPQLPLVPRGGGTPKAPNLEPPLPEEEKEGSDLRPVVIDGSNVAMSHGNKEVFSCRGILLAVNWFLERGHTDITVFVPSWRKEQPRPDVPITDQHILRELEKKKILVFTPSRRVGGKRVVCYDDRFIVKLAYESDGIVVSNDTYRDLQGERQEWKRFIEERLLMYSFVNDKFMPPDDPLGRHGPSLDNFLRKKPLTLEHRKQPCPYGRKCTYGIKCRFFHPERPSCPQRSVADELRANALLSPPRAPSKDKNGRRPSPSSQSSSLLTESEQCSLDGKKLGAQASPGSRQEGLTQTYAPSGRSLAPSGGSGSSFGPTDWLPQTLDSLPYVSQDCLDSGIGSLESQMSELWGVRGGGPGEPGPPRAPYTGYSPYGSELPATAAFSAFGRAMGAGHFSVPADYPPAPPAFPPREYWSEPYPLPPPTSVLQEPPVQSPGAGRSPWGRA

T3: C-terminal human Regnase-1 (amino acids 301 to 599) with N-terminal FLAG tag and C-terminal BirA recognition … (human, UniProt Q5D1E8 301-599)
T3 sequence: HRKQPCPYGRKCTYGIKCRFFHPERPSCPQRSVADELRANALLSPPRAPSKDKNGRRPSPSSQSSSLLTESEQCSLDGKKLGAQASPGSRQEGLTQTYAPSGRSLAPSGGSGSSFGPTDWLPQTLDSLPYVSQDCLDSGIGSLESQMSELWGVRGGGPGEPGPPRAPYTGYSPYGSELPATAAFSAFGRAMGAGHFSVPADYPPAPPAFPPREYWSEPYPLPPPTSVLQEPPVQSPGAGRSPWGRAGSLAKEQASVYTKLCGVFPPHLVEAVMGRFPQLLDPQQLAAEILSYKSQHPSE


Columns and labels:
Test in all cases: cell-based or functional assay
[1] = molecular target: T1, full-length human Regnase-1 with a FLAG …
[2] = molecular target: T2, C-terminal domain-deleted human …
[3] = molecular target: T3, C-terminal human Regnase-1 (amino acids …)
[4] = molecular target: T1, full-length human Regnase-1 with a FLAG …; remark: listed apart in the source
[5] = molecular target: T2, C-terminal domain-deleted human …; remark: listed apart in the source
[6] = molecular target: T3, C-terminal human Regnase-1 (amino acids …); remark: listed apart in the source

Binder | 50% inhibition concentration, Regnase-1 phosphorylation by IKKβ (AlphaScreen) [1] | 50% inhibition concentration, Regnase-1 phosphorylation by IKKβ (AlphaScreen) [2] | 50% inhibition concentration, Regnase-1 phosphorylation by IKKβ (AlphaScreen) [3] | 50% inhibition concentration, Regnase-1 phosphorylation by TBK1 (AlphaScreen) [4] | 50% inhibition concentration, Regnase-1 phosphorylation by TBK1 (AlphaScreen) [5] | 50% inhibition concentration, Regnase-1 phosphorylation by TBK1 (AlphaScreen) [6]
XWIWDFWNED (HELM PEPTIDE1{[meA].W.I.W.D.F.W.N.E.D.[C1CCN([*:1])C1]}$PEPTIDE1,PEPTIDE1,1:R1-10:R3$$$V2.0; SMILES CC[C@H](C)[C@@H]1NC(=O)[C@H](Cc2c[nH]c3ccccc23)NC(=O)[C@H](C)N(C)C(=O)C[C@@H](C(=O)N2CCCC2)NC(=O)[C@H](CCC(=O)O)NC(=O)[C@H](CC(N)=O)NC(=O)[C@H](Cc2c[nH]c3ccccc23)NC(=O)[C@H](Cc2ccccc2)NC(=O)[C@H](CC(=O)O)NC(=O)[C@H](Cc2c[nH]c3ccccc23)NC1=O) [PP24] | 5.3 µM | 4 µM | 7.2 µM | 35.7 µM | 27.3 µM | 34.8 µM
[dNMeA]PTSSWYKIWD-Pyrrolidide (lactam N-11) [PP23] | 25.6 µM | > 62.1 µM | > 62.1 µM | 18.8 µM | 29.7 µM | 30.7 µM
XNSWYKIWGLD (HELM PEPTIDE1{[meA].N.S.W.Y.K.I.W.G.L.D.[C1CCN([*:1])C1]}$PEPTIDE1,PEPTIDE1,1:R1-11:R3$$$V2.0; SMILES CC[C@H](C)[C@@H]1NC(=O)[C@H](CCCCN)NC(=O)[C@H](Cc2ccc(O)cc2)NC(=O)[C@H](Cc2c[nH]c3ccccc23)NC(=O)[C@H](CO)NC(=O)[C@H](CC(N)=O)NC(=O)[C@H](C)N(C)C(=O)C[C@@H](C(=O)N2CCCC2)NC(=O)[C@H](CC(C)C)NC(=O)CNC(=O)[C@H](Cc2c[nH]c3ccccc23)NC1=O) [PP21] | 19.6 µM | 39.3 µM | 37.2 µM | 13.5 µM | 11.7 µM | 17 µM
XNSWYRIWGLD (HELM PEPTIDE1{[meA].N.S.W.Y.R.I.W.G.L.D.[C1CCN([*:1])C1]}$PEPTIDE1,PEPTIDE1,1:R1-11:R3$$$V2.0; SMILES CC[C@H](C)[C@@H]1NC(=O)[C@H](CCCNC(=N)N)NC(=O)[C@H](Cc2ccc(O)cc2)NC(=O)[C@H](Cc2c[nH]c3ccccc23)NC(=O)[C@H](CO)NC(=O)[C@H](CC(N)=O)NC(=O)[C@H](C)N(C)C(=O)C[C@@H](C(=O)N2CCCC2)NC(=O)[C@H](CC(C)C)NC(=O)CNC(=O)[C@H](Cc2c[nH]c3ccccc23)NC1=O) [PP22] | 15 µM | 34 µM | 31 µM | 24.3 µM | 22.8 µM | 25.8 µM
[dNMeA]EDTPEDDHD-Pyrrolidide (lactam N-10) [PP25] | 27 µM | 47.7 µM | 27.6 µM | 18.9 µM | 16.1 µM | 16.3 µM
